Measured values as given in paper PMC6704105.

Biological target: PRMT5 (UniProt O14744)
Experiment: co-IP with anti-PRMT5, JDP2 blot
Conditions: reference: wild-type JDP2; sites T116

binding against the reference: lost
Substance: JDP2 (from UniProt Q8WYK2) JDP2 T116A
